Experiment: First-order nonenzymatic deamidation of pentapeptides in Tris buffer
Format: physicochemical
Conditions: pH 7.4, 37.0° C., 0.15 M Tris HCl; Asn pentapeptides
Summary of the method: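 First-order deamidation rates determined for XxxAsnYyy and XxxGlnYyy pentapeptides in 0.15 M Tris buffer, pH 7.4, 37° C. Not all values were measured directly: several Asn rates were estimated and most Gln rates came from surface fitting.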

Row | Substance | First-Order Deamidation Halftimes of GlyXxxAsnYyyGly
1 | GlyGluAsnAspGly (GENDG; printed: GlyGluAsnAspGly) | 32.0 days
2 | GlySerAsnTrpGly (GSNWG; printed: GlySerAsnTrpGly) | 76.8 days
3 | GlyHisAsnGlyGly (GHNGG; printed: GlyHisAsnGlyGly) | 1.14 days
4 | GlyLysAsnLeuGly (GKNLG; printed: GlyLysAsnLeuGly) | 119 days
5 | GlyLysAsnAspGly (GKNDG; printed: GlyLysAsnAspGly) | 34.0 days
6 | GlyTyrAsnCysGly (GYNCG; printed: GlyTyrAsnCysGly) | 48.6 days
7 | GlyCysAsnMetGly (GCNMG; printed: GlyCysAsnMetGly) | 64.5 days
8 | GlyMetAsnMetGly (GMNMG; printed: GlyMetAsnMetGly) | 56.9 days
9 | GlyGlyAsnGlyGly (GGNGG; printed: GlyGlyAsnGlyGly) | 1.03 days
10 | GlyLysAsnProGly (GKNPG; printed: GlyLysAsnProGly) | 4940 days
11 | GlyTrpAsnCysGly (GWNCG; printed: GlyTrpAsnCysGly) | 83.1 days
12 | GlyThrAsnPheGly (GTNFG; printed: GlyThrAsnPheGly) | 76.4 days
13 | GlyAspAsnSerGly (GDNSG; printed: GlyAspAsnSerGly) | 17.0 days
14 | GlyTrpAsnThrGly (GWNTG; printed: GlyTrpAsnThrGly) | 38.9 days
15 | GlyArgAsnTrpGly (GRNWG; printed: GlyArgAsnTrpGly) | 127 days
16 | GlyThrAsnMetGly (GTNMG; printed: GlyThrAsnMetGly) | 47.6 days
17 | GlyCysAsnTyrGly (GCNYG; printed: GlyCysAsnTyrGly) | 83.9 days
18 | GlyValAsnLysGly (GVNKG; printed: GlyValAsnLysGly) | 63.8 days
19 | GlyIleAsnCysGly (GINCG; printed: GlyIleAsnCysGly) | 52.7 days
20 | GlyGluAsnCysGly (GENCG; printed: GlyGluAsnCysGly) | 44.2 days
21 | GlyLeuAsnValGly (GLNVG; printed: GlyLeuAsnValGly) | 294 days
22 | GlyTrpAsnLeuGly (GWNLG; printed: GlyTrpAsnLeuGly) | 133 days
23 | GlyCysAsnThrGly (GCNTG; printed: GlyCysAsnThrGly) | 48.7 days
24 | GlyLysAsnArgGly (GKNRG; printed: GlyLysAsnArgGly) | 57.4 days

Same assay, conditions: pH 7.4, 37.0 ° C., 0.15 M Tris HCl; Gln pentapeptides; 52 values measured, rest derived from surface fitting

Row | Substance | First-Order Deamidation Halftimes of GlyXxxGlnYyyGly
25 | GlySerGlnSerGly (GSQSG; printed: GlySerGlnSerGly) | 6000 days
26 | GlyPheGlnAspGly (GFQDG; printed: GlyPheGlnAspGly) | 8200 days
27 | GlyArgGlnAspGly (GRQDG; printed: GlyArgGlnAspGly) | 5900 days
28 | GlyThrGlnPheGly (GTQFG; printed: GlyThrGlnPheGly) | 6800 days
29 | GlyThrGlnValGly (GTQVG; printed: GlyThrGlnValGly) | 5100 days
30 | GlyHisGlnIleGly (GHQIG; printed: GlyHisGlnIleGly) | 6700 days
31 | GlyThrGlnHisGly (GTQHG; printed: GlyThrGlnHisGly) | 4500 days
32 | GlyCysGlnThrGly (GCQTG; printed: GlyCysGlnThrGly) | 3500 days
33 | GlyTyrGlnGluGly (GYQEG; printed: GlyTyrGlnGluGly) | 8300 days
34 | GlyGlyGlnLeuGly (GGQLG; printed: GlyGlyGlnLeuGly) | 6200 days
35 | GlyValGlnSerGly (GVQSG; printed: GlyValGlnSerGly) | 4400 days
36 | GlyProGlnTrpGly (GPQWG; printed: GlyProGlnTrpGly) | 13000 days
37 | GlyPheGlnTrpGly (GFQWG; printed: GlyPheGlnTrpGly) | 16000 days
38 | GlyTyrGlnProGly (GYQPG; printed: GlyTyrGlnProGly) | 11000 days
39 | GlyLysGlnArgGly (GKQRG; printed: GlyLysGlnArgGly) | 2300 days
40 | GlyAspGlnTyrGly (GDQYG; printed: GlyAspGlnTyrGly) | 13000 days
41 | GlyThrGlnCysGly (GTQCG; printed: GlyThrGlnCysGly) | 1000 days
42 | GlyLeuGlnPheGly (GLQFG; printed: GlyLeuGlnPheGly) | 8000 days
43 | GlyMetGlnTrpGly (GMQWG; printed: GlyMetGlnTrpGly) | 9400 days
44 | GlyGluGlnTyrGly (GEQYG; printed: GlyGluGlnTyrGly) | 13000 days
45 | GlySerGlnTrpGly (GSQWG; printed: GlySerGlnTrpGly) | 17000 days
46 | GlyProGlnGlyGly (GPQGG; printed: GlyProGlnGlyGly) | 630 days
47 | GlyProGlnAspGly (GPQDG; printed: GlyProGlnAspGly) | 7200 days
